According to US9529005B2, “Modulating bacterial MAM polypeptides in pathogenic disease” (priority 2011, dated 2016):
Like-named read-outs stand apart in the source and are kept apart here.

How the values were obtained:
[1] = tested on: HeLa cells; format: cell-based; conditions: 500 μM heparin from intestinal mucosa
[2] = Liposome association assay; format: binding
Description: PBS-buffered liposomes were prepared from 1,2-Dioleoyl-sn-glycero-3-phosphocholine (PC) or mixtures of PC and 1,2-dioleoyl-sn-glycero-3-phosphate (PA) (both Avanti Polar Lipids Inc.) as described previously (Selyunin et al., 2011), but using PBS as buffer. 300 μg liposomes were incubated with 100 μg MBP-MAM protein in PBS for one hour at 22° C. Mixtures were centrifuged at 100 000×g, 4° C. for one hour and both pellet and supernatant fractions were separated by SDS-PAGE and proteins were detected by Coomassie staining.
Binding of GST and GST-mce constructs to liposomes were carried out as described in the literature (Krachler et al., 2011). 300 μg liposomes containing PC alone or 1-80 mol % PA were incubated with 100 μg GST and GST-mce proteins in PBS for one hour at 22° C. Mixtures were centrifuged at 100,000×g, 4° C. for one hour and both pellet and supernatant fractions were separated by SDS-PAGE and proteins detected by Coomassie staining Band intensities were determined using the gel analysis software UN-SCAN-IT (Silk Scientific Inc.) and intensities of pellet samples (% bound) were expressed as fraction of total intensities (supernatant and pellet samples combined).

[3] = tested on: HeLa cells; assay: Fluorescence attachment assay: saturation binding of labeled MBP-MAM proteins to HeLa cells
[4] = tested on: V. parahaemolyticus POR1; assay: BL21 expressing MAM constructs blocking POR1 attachment and POR1-mediated cytotoxicity; conditions: construct expressed on E. coli BL21, identical multiplicity of infection
[5] = tested on: trypsinized cells; assay: Fluorescence attachment assay of labeled MAM7 on trypsinized cells; format: binding; conditions: cells treated with trypsin
Description: HeLa cells were cultured in sterilized Corning costar 96 well plates (15 000 cells/well) for 16 hours prior to experiments. ALEXAFLUOR®-labeled (fluorescent dye) proteins were diluted into PBS to give final concentrations of 0.1-100 μM and incubated with cells washed with PBS for 1 hour at 37° C. Initial fluorescence and fluorescence output were measured on a plate reader (λexcitation 485 nm, λemission 520 nm) prior to and following three washes with PBS, respectively. Data was expressed as % bound fluorescence and corrected for values determined for MBP alone. Levels of bound protein were blotted as a function of protein concentration and data were fit to a single-site binding model using Sigma Plot. For fluorescence attachment assays on trypsinized cells, cells were detached from the culture dish by trypsinization, which was stopped by adding DMEM after 5 minutes. Cells were adjusted to 600,000/ml in PBS and incubated with 100 μM labeled MBP-MAM7 or MBP in PBS for 30 minutes at 37° C. Fluorescence of the cell suspension was measured before and after extensive washing with PBS as described above.
Attachment assays with live bacteria or purified labeled protein were carried out as described (Krachler et al., 2011). […]

[6] = Lipid overlay assay; format: binding; conditions: MBP-MAM proteins
Description: Pre-spotted PIPstrips™ (Echelon Biosciences Inc.) were incubated in T-TBS containing 5% dry milk powder for one hour at 22° C. MBP-MAM proteins were diluted into blocking buffer to give a final concentration of 10 μM and incubated with the PIP strip for one hour at 22° C. Strips were washed with T-TBS three times for 10 minutes each and incubated with His antibody (QIAGEN) diluted 1:1000 into blocking buffer at 22° C. for one hour. Strips were washed three times with T-TBS and incubated with anti-mouse HRP-conjugated secondary antibody (GE Healthcare) diluted 1:5000 into blocking buffer for 1 hour at 22° C. After three more washes, bound proteins were detected using the ECL plus detection system (GE Healthcare).

[7] = Pull-down of liposomes (50 mol % PA, 50 mol % PC) on immobilized GST-mce domains; format: binding; conditions: 50 mol % PA and 50 mol % PC, molybdophosphoric acid assay
Description: Liposomes in load, flowthrough and eluate fractions were quantified using the method of Worth an Wright (1977). Briefly, samples were extracted with a mixture of chloroform and methanol, centrifuged and molybdophosphoric acid (Sigma) was added to the organic phase. Samples were centrifuged and the aqueous phase removed. Metol and sodium bisulfate were added to reduce the organic phase and the aqueous phase was removed again following centrifugation. The amount of phospholipid was determined by measuring absorbance at 680 nm and expressed as fraction of the amount detected in loaded fractions.
Although the inventors had previously shown that MAM1 is sufficient to bind to phosphatidic acid, it was unclear how the other mce domains contributed to phosphatidic acid binding in the absence of fibronectin. The inventors tested all seven individual mce domains (mce1-mce7) for phosphatidic acid binding using liposome association assays. Proteins were incubated with liposomes containing a mixture of PC and increasing amounts (1-80 mol %) of PA, followed by separation of liposome-bound and un-bound fractions by ultracentrifugation. All fractions were analyzed by SDS-PAGE (data not shown) followed by densitometry (FIG. 18A). […] When the inventors analyzed the mce domains of MAM7 for overall charge, they found only minor differences between individual domains. When they looked at charge distribution, however, the inventors observed that several basic residues that are otherwise well conserved between individual domains are mutated in mce 6. These include two residues which are lysines in mce 2, the strongest binding mce domain, but a serine and glutamine in mce 6, respectively, and a well conserved arginine which is replaced by a histidine in mce 6 (FIG. 18D). […]. (FIG. 18B and data not shown). […] GST-mce proteins were immobilized and incubated with liposomes. Bound liposomes were quantified using a molybdophosphoric acid assay. […]

Molecule: heparin
- BL21-MAM7 remaining attached [1]: ~40%

B1: MAM7: recombinant MBP-tagged V. parahaemolyticus multivalent adhesion molecule with seven mce domains in tandem (SEQ ID NO:1) (protein, listed as Vibrio parahaemolyticus)
chain: MSDQNNSQTSYVPDVKRSKGISPLWLLPILTMVLAGWLVVKSIHDAGQRVQIYFSDAAGLVAGRTTIRYQGLEVGMVRDINLSEDLGSIYVDADIYPEATKLLNDKTRFWLVKPTASLTGVSGLDALVSGNYISIQPGDGQEFETTFHALDSAPTDLRVSQGLNIKLKSRDLGGVSIGSQIVYKKIPIGAVYSYQLDEDAKSITIQANIQEQYRHIINDRSRFWNVSGIGASIGFEGVDVRLESMSALLGGAIAVDSPDDGEPVEENTEFRLYKDLKTAGRGIAIKIALPDDNKVSSEGAPIMYRGIEIGQVTDLSLSEGREVILASAAIQPAFSDMLTTGTRFVLEEAKVSLSGVENIANLVRGNFLTIVPGDGERSRRFTAIRKNVFNQQQEKSIAIRLISDNSFGLDSGANVLYKGIVVGSIINVGLVDEKKQTKHEVFMDVLIDHEYKHLIKSNNRFYVTGSASAELTESGLSVTVPPAKQLLTGSISFVSEGSESIQKEYQLFQNESLAELAQYNKTGSKTLMLFASELPPISKGSPLLYRNLPVGNVSDFHLVDGGVLIKATIENRFAYLVTPQTVFWNRSGIEIDASLSGVSVKAHPLKSLIEGGIAFDSVPGVENKVGERWKLYADQQKARKFGRVISLETDGTQEVLKGMPIEYQGVKVGEVTLVVPNFRRNLVEVTARILPEYVENIAVEGTHFWLTEPEIGLGGVKNLGALVSKSISVEPGNGKAKFDFQLEKGFDRVEGVMFTLQSEQRGSVQVGTPVLYRQMEVGQVTDVRLGEFADRVVSTIKIKPEYAYLVRQNSVFWNVSGVDVSIGITGANIKAGTIDSLVRGGIAFSTPEQSQIPPAAKRGHSFYLYPRADESWVQWRTPIPKP
modifications: MBP tag
- PA content of liposomes at which binding was seen ([2]; MBP-MAM proteins, PC/PA liposomes): 1 mol %
- Kd ([3]; intact host cells, read-out: apparent KD for intact cells): 200 nM
- Kd ([3]; saturation binding, ALEXAFLUOR-labeled MBP-MAM proteins, cultivated HeLa cells, read-out: Equilibrium dissociation constants (KD values)): 200 ± 100 nM
- effect on attachment of POR1 and pathogen-mediated cytotoxicity [4]: significantly decreased
- reduction of the number of MAM7 molecules on cells [5]: over 100 fold
- binding to PA in lipid overlay assay [6]: bound to PA

B2: mce 6: GST-tagged individual mce domain 6 of V. parahaemolyticus MAM7 (SEQ ID NO: 10) (protein, listed as Vibrio parahaemolyticus)
chain: FGRVISLETDGTQEVLKGMPIEYQGVKVGEVTLVVPNFRRNLVEVTARILPEYVENIAVEGTHFWLTEPEIGLGGVKNLGALVSKSISVEPG
modifications: GST tag
- decrease of binding to PA-containing liposomes (apparent affinity) ([2]; individual GST-mce domains, 1-80 mol % PA, densitometry, relative to high binding mce domains): more than 100 fold
- binding of liposomes to immobilized GST-mce proteins [7]: weaker binding
